B1: Protein pleiotropic regulatory locus 1 (Arabidopsis thaliana (Mouse-ear cress)), Q42384 (parent)
chain: MPAPTTEIEPIEAQSLKKLSLKSLKRSLELFSPVHGQFPPPDPEAKQIRLSHKMKVAFGGVEPVVSQPPRQPDRINEQPGPSNALSLAAPEGSKSTQKGATESAIVVGPTLLRPILPKGLNYTGSSGKSTTIIPANVSSYQRNLSTAALMERIPSRWPRPEWHAPWKNYRVIQGHLGWVRSVAFDPSNEWFCTGSADRTIKIWDVATGVLKLTLTGHIEQVRGLAVSNRHTYMFSAGDDKQVKCWDLEQNKVIRSYHGHLSGVYCLALHPTLDVLLTGGRDSVCRVWDIRTKMQIFALSGHDNTVCSVFTRPTDPQVVTGSHDTTIKFWDLRYGKTMSTLTHHKKSVRAMTLHPKENAFASASADNTKKFSLPKGEFCHNMLSQQKTIINAMAVNEDGVMVTGGDNGSIWFWDWKSGHSFQQSETIVQPGSLESEAGIYAACYDNTGSRLVTCEADKTIKMWKEDENATPETHPINFKPPKEIRRF
partner: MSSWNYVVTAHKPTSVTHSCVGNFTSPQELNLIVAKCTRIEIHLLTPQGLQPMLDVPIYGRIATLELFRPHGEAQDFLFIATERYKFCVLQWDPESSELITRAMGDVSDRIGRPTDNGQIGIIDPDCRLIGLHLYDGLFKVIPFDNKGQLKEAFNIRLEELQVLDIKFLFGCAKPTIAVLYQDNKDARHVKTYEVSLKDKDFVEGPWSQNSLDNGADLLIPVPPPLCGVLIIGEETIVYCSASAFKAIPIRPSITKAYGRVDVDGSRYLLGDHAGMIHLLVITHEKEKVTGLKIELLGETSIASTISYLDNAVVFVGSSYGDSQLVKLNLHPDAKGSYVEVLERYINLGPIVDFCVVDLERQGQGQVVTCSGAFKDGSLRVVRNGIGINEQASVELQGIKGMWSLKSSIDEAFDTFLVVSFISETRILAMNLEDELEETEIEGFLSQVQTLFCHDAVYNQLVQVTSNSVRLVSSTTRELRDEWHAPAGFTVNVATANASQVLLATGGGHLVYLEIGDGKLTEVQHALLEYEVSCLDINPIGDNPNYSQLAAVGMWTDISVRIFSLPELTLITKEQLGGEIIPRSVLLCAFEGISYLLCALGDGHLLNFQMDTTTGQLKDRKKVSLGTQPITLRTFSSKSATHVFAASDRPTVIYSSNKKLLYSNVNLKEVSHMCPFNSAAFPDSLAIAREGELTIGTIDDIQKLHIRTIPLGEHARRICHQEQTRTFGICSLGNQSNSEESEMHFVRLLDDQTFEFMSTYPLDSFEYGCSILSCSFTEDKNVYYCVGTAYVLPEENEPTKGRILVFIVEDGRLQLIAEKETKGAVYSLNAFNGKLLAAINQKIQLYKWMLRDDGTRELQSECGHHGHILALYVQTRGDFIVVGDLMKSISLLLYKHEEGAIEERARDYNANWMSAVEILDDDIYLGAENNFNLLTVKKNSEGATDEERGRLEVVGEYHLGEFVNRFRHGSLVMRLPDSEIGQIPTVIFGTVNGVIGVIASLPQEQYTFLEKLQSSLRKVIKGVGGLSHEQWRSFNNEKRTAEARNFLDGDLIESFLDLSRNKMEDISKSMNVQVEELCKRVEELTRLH

Variants of: B1
Conditions: with ddb1a_arath DDB1A

| effect of a mutation on the interaction | Variant |
| --- | --- |
| decreasing interaction | R290H;R332H |

From IntAct's records for PubMed 18223036
